T1: LIN7C, Q9NUP9
T1 sequence (Q9NUP9 88-185, limits assumed, looked up): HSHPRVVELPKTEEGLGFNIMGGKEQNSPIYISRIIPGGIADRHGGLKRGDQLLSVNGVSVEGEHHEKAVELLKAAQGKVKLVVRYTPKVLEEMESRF

T2: PARD3B_1, Q8TEW8
T2 sequence (Q8TEW8 196-299, limits assumed, looked up): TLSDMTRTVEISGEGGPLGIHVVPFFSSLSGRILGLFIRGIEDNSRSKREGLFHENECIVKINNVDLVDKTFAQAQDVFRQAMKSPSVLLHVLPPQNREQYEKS

T3: DFNB31_1, Q9P202
T3 sequence (Q9P202 135-233, limits assumed, looked up): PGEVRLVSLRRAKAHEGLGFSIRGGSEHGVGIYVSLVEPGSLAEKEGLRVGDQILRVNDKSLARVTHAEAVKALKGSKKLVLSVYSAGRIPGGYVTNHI

T4: ARHGAP21, Q5T5U3
T4 sequence (Q5T5U3 45-169, limits assumed, looked up): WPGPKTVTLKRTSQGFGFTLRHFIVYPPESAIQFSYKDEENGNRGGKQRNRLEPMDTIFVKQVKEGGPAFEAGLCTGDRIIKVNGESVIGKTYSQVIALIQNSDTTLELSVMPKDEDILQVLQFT

T5: GRIP1_7, Q9Y3R0
T5 sequence (Q9Y3R0 999-1096, limits assumed, looked up): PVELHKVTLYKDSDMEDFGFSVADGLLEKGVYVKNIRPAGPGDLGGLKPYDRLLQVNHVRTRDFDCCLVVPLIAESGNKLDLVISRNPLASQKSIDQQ

T6: MPDZ_5, O75970
T6 sequence (O75970 695-796, limits assumed, looked up): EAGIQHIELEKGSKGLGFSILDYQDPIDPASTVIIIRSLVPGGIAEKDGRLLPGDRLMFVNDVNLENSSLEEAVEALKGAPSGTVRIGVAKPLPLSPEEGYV

T7: TX1BP3, O14907
T7 sequence (O14907 10-122, limits assumed, looked up): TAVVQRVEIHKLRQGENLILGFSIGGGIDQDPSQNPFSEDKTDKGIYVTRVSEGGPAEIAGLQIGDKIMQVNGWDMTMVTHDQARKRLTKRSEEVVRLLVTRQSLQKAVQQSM

T8: SNTA1, Q13424
T8 sequence (Q13424 82-180, limits assumed, looked up): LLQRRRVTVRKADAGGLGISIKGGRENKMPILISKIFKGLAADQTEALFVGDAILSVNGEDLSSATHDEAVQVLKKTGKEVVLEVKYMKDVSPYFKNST

T9: PDZD2_2, O15018
T9 sequence (O15018 329-429, limits assumed, looked up): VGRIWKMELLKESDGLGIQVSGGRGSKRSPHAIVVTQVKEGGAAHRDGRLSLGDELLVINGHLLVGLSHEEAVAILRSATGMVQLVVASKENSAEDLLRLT

T10: HTRA3, P83110
T10 sequence (P83110 354-453, limits assumed, looked up): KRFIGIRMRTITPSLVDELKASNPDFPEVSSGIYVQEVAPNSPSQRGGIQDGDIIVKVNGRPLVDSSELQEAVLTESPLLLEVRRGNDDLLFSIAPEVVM

T11: LNX2_3, Q8N448
T11 sequence (Q8N448 463-564, limits assumed, looked up): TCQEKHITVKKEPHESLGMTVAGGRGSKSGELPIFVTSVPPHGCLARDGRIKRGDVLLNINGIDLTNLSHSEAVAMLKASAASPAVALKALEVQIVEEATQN


Experiments:
Test in all cases: holdup assay
Parameters in all cases: key: below the threshold = too weak to quantify, mostly under pKd 3.1 to 4
Conditions in all cases: plain residues with an end cap or a label only (N-terminal biotin on a linker: ado-ado)
LIN7C, Q9NUP9 = target: T1, LIN7C, Q9NUP9
FRMPD3, Q5JV73 = target: FRMPD3, Q5JV73
GORASP2, Q9H8Y8 = target: GORASP2, Q9H8Y8
Inadl_5, Q8NI35 = target: Inadl_5, Q8NI35
GOPC, Q9HD26 = target: GOPC, Q9HD26
PARD3B_1, Q8TEW8 = target: T2, PARD3B_1, Q8TEW8
DFNB31_1, Q9P202 = target: T3, DFNB31_1, Q9P202
ARHGAP21, Q5T5U3 = target: T4, ARHGAP21, Q5T5U3
Inadl_1, Q8NI35 = target: Inadl_1, Q8NI35
SCRIB_2, Q14160 = target: SCRIB_2, Q14160
NHERF2_2, Q15599 = target: NHERF2_2, Q15599
TJP1_2, Q07157 = target: TJP1_2, Q07157
FRMPD2_1, Q68DX3 = target: FRMPD2_1, Q68DX3
LAP2, Q96RT1 = target: LAP2, Q96RT1
GRIP1_7, Q9Y3R0 = target: T5, GRIP1_7, Q9Y3R0
MPDZ_5, O75970 = target: T6, MPDZ_5, O75970
TX1BP3, O14907 = target: T7, TX1BP3, O14907
SNTA1, Q13424 = target: T8, SNTA1, Q13424
DLG2_3, Q15700 = target: DLG2_3, Q15700
GRID2IP_2, A4D2P6 = target: GRID2IP_2, A4D2P6
PDZD2_2, O15018 = target: T9, PDZD2_2, O15018
Inadl_3, Q8NI35 = target: Inadl_3, Q8NI35
HTRA3, P83110 = target: T10, HTRA3, P83110
GIPC2, Q8TF65 = target: GIPC2, Q8TF65
LNX2_3, Q8N448 = target: T11, LNX2_3, Q8N448

Chain of SCRIB_2, Q14160 (Q14160 857-960): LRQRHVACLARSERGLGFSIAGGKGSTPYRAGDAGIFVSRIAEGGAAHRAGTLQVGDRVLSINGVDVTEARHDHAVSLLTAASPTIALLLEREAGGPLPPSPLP
Chain of NHERF2_2, Q15599 (Q15599 142-238): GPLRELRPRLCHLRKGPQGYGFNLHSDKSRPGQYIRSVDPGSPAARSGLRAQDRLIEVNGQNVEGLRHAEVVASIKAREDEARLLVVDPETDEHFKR
Chain of GIPC2, Q8TF65 (Q8TF65 112-203): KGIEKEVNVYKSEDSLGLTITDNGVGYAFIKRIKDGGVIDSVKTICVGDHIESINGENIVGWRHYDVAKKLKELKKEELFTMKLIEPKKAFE
Chain of FRMPD3, Q5JV73 (Q5JV73 12-100): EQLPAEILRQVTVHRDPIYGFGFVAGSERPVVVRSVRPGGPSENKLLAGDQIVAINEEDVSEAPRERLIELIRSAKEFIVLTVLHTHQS
Chain of LAP2, Q96RT1 (Q96RT1 other isoform, or with tags, fused parts or gaps): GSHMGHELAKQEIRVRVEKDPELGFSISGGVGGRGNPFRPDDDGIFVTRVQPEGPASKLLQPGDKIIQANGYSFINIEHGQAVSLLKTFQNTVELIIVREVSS
Chain of Inadl_1, Q8NI35 (Q8NI35 113-229): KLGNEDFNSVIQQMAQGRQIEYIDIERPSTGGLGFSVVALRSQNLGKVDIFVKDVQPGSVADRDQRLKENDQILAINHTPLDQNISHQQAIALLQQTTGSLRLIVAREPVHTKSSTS
Chain of TJP1_2, Q07157 (Q07157 181-274): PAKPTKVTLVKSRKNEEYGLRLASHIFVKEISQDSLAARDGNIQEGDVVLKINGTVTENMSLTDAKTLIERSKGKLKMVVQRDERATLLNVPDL
Chain of Inadl_5, Q8NI35 (Q8NI35 673-780): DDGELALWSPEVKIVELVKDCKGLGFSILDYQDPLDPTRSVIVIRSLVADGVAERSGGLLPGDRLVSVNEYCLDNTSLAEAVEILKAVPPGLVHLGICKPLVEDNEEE
Chain of GRID2IP_2, A4D2P6 (A4D2P6 272-370): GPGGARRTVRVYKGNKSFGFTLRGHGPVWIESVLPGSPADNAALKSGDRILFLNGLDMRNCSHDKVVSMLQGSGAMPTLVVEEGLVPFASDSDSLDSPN
Chain of FRMPD2_1, Q68DX3 (Q68DX3 770-861): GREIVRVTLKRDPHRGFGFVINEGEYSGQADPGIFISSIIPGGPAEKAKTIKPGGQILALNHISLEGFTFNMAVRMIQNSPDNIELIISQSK
Chain of Inadl_3, Q8NI35 (Q8NI35 359-469): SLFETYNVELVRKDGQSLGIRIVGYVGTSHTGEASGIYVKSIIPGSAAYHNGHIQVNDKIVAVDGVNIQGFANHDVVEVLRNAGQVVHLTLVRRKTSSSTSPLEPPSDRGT

Binder | pKd (LIN7C, Q9NUP9) | pKd (FRMPD3, Q5JV73) | pKd (GORASP2, Q9H8Y8) | pKd (Inadl_5, Q8NI35) | pKd (GOPC, Q9HD26) | pKd (PARD3B_1, Q8TEW8) | pKd (DFNB31_1, Q9P202) | pKd (ARHGAP21, Q5T5U3) | pKd (Inadl_1, Q8NI35) | pKd (SCRIB_2, Q14160) | pKd (NHERF2_2, Q15599) | pKd (TJP1_2, Q07157) | pKd (FRMPD2_1, Q68DX3) | pKd (LAP2, Q96RT1) | pKd (GRIP1_7, Q9Y3R0) | pKd (MPDZ_5, O75970) | pKd (TX1BP3, O14907) | pKd (SNTA1, Q13424) | pKd (DLG2_3, Q15700) | pKd (GRID2IP_2, A4D2P6) | further results
SNAGNTATKA [NOSTRIN, Q8IVI9] | below the threshold | below the threshold | below the threshold | below the threshold | below the threshold | below the threshold | below the threshold | below the threshold | below the threshold | below the threshold | below the threshold | below the threshold | below the threshold | below the threshold | below the threshold | below the threshold | below the threshold | below the threshold | 3.6 | below the threshold | pKd (PDZD2_2, O15018): below the threshold; pKd (Inadl_3, Q8NI35): below the threshold; pKd (HTRA3, P83110): below the threshold; pKd (GIPC2, Q8TF65): below the threshold; pKd (LNX2_3, Q8N448): below the threshold
LKVPPEERLI [CRB2, Q5IJ48] | below the threshold | below the threshold | 3.62 | below the threshold | below the threshold | 3.88 | below the threshold | 3.89 | below the threshold | below the threshold | below the threshold | below the threshold | below the threshold | below the threshold | below the threshold | below the threshold | below the threshold | below the threshold | below the threshold | below the threshold | pKd (PDZD2_2, O15018): below the threshold; pKd (Inadl_3, Q8NI35): 3.6; pKd (HTRA3, P83110): below the threshold; pKd (GIPC2, Q8TF65): below the threshold; pKd (LNX2_3, Q8N448): below the threshold
SGSLKLMTTV [DACT1, Q9NYF0] | below the threshold | below the threshold | 4.32 | below the threshold | 3.95 | below the threshold | 3.56 | below the threshold | below the threshold | 3.69 | below the threshold | below the threshold | below the threshold | below the threshold | below the threshold | below the threshold | 3.75 | 3.49 | 4.4 | 3.97 | pKd (PDZD2_2, O15018): 3.92; pKd (Inadl_3, Q8NI35): below the threshold; pKd (HTRA3, P83110): below the threshold; pKd (GIPC2, Q8TF65): below the threshold; pKd (LNX2_3, Q8N448): below the threshold

Continued, in another order:

pKd (LIN7C, Q9NUP9) | pKd (FRMPD3, Q5JV73) | pKd (GORASP2, Q9H8Y8) | pKd (Inadl_5, Q8NI35) | pKd (GOPC, Q9HD26) | pKd (PARD3B_1, Q8TEW8) | pKd (DFNB31_1, Q9P202) | pKd (ARHGAP21, Q5T5U3) | pKd (Inadl_1, Q8NI35) | pKd (SCRIB_2, Q14160) | pKd (NHERF2_2, Q15599) | pKd (TJP1_2, Q07157) | pKd (FRMPD2_1, Q68DX3) | pKd (LAP2, Q96RT1) | pKd (GRIP1_7, Q9Y3R0) | pKd (MPDZ_5, O75970) | pKd (TX1BP3, O14907) | pKd (SNTA1, Q13424) | pKd (DLG2_3, Q15700) | pKd (GRID2IP_2, A4D2P6) | Binder | further results
below the threshold | 3.5 | 3.53 | 3.54 | 3.54 | below the threshold | 3.66 | 4.14 | below the threshold | 3.67 | 3.63 | 3.54 | below the threshold | 3.66 | below the threshold | below the threshold | 3.81 | 4.93 | below the threshold | 3.55 | QGPVETESVV [SLC45A4, Q5BKX6] | pKd (PDZD2_2, O15018): 5.27; pKd (Inadl_3, Q8NI35): 3.96; pKd (HTRA3, P83110): below the threshold; pKd (GIPC2, Q8TF65): 4.37; pKd (LNX2_3, Q8N448): below the threshold
below the threshold | below the threshold | 3.96 | 3.61 | 4.19 | below the threshold | 3.52 | below the threshold | below the threshold | below the threshold | below the threshold | below the threshold | 4.35 | 3.72 | below the threshold | below the threshold | below the threshold | 4.39 | 4.55 | 4.58 | TKGPRGPTRV [SAPCD1, Q5SSQ6] | pKd (PDZD2_2, O15018): 3.88; pKd (Inadl_3, Q8NI35): below the threshold; pKd (HTRA3, P83110): below the threshold; pKd (GIPC2, Q8TF65): below the threshold; pKd (LNX2_3, Q8N448): below the threshold
4.07 | below the threshold | 3.57 | below the threshold | below the threshold | 4.18 | 4.59 | below the threshold | below the threshold | below the threshold | below the threshold | below the threshold | below the threshold | below the threshold | below the threshold | below the threshold | below the threshold | 4.68 | 3.66 | below the threshold | ETQVTAETVI [TMEM225B, P0DP42] | pKd (PDZD2_2, O15018): 3.92; pKd (Inadl_3, Q8NI35): 4.26; pKd (HTRA3, P83110): below the threshold; pKd (GIPC2, Q8TF65): below the threshold; pKd (LNX2_3, Q8N448): below the threshold

From publication PMC9482650, “Quantitative fragmentomics allow affinity mapping of interactomes” (Nature Communications, 2022)
